Results as given in paper PMC10557622 (bioRxiv, 2023).

Legend:
CENP-A/H4 = CENP-A/H4 (UniProt P49450;P62805); assay: BLI
[1] = target: 6xHis-MBP-CENP-C 1-600-SpyCatcher (UniProt Q03188 1-600); assay: BLI
6xHis-MBP-CENP-C 1-600-SpyCatcher, sequence (Q03188 1-600): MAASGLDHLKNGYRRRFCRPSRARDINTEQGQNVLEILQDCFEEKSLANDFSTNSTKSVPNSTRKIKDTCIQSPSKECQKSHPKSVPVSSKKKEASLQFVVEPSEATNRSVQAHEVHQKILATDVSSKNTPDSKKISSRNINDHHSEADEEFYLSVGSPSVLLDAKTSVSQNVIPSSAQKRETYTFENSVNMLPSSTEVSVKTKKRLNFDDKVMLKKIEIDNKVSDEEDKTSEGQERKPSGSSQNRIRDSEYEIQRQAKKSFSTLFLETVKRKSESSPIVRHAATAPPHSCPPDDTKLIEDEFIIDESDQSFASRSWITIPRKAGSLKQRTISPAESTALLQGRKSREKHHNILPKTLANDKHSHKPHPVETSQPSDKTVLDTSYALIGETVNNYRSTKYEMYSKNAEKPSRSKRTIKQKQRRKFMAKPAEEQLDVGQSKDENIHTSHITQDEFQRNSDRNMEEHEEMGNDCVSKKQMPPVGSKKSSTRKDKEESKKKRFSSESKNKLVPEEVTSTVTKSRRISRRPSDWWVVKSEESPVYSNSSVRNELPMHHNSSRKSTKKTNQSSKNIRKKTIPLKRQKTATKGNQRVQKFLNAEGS

| Kd (CENP-A/H4) | Kd [1] | Binder |
| --- | --- | --- |
| 137 nM | 404 nM | recombinant Human EMD protein with N-terminal His-tag (natural protein) MDNYADLSDTELTTLLRRYNIPHGPVVGSTRRLYEKKIFEYETQRRRLSPPSSSAASSYSFSDLNSTRGDADMYDLPKKEDALLYQSKGYNDDYYEESYFTTRTYGEPESAGPSRAVRQSVTSFPDADAFHHQVHDDDLLSSSEEECKDRERPMYGRDSAYQSITHYRPVSASRSSLDLSYYPTSSSTSFMSSSSSSSSWLTRRAIRPENRAPGAGLGQDRQVPLWGQLLLFLVFVIVLFFIYHFMQAEEGNPF |
| 290 nM |  | purified BANF1 (natural protein) MTTSQKHRDFVAEPMGEKPVGSLAGIGEVLGKKLEERGFDKAYVVLGQFLVLKKDEDLFREWLKDTCGANAKQSRDCFGCLREWCDAFL |
